Values quoted from earlier work in patent US20200306346A1 (ADOCIA, priority 2017, published 2020).

Key:
[1] = system: mammalian cells in culture
patients = details: in vivo

Substance	cytotoxicity [1]	inflammatory responses at the first dose (patients)
fibrillated human glucagon: "potentially dangerous nature of these fibrils: fibrillated human glucagon being cytotoxic in mammalian cells in culture"	cytotoxic	
pegnivacogin		3 out of 640
